T1: IL-18 binding protein (IL-18BP) (UniProt O95998 31-194)
T1 sequence (looked up): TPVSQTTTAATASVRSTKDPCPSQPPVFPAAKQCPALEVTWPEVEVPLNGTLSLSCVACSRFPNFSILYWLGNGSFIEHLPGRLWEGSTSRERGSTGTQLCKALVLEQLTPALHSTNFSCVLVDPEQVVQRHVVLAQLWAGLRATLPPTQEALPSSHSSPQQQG

T2: IL-18 receptors on HEK-Blue IL-18 reporter cells (UniProt Q13478 19-541; O95256 20-599, limits assumed)
T2 sequence (looked up) 1: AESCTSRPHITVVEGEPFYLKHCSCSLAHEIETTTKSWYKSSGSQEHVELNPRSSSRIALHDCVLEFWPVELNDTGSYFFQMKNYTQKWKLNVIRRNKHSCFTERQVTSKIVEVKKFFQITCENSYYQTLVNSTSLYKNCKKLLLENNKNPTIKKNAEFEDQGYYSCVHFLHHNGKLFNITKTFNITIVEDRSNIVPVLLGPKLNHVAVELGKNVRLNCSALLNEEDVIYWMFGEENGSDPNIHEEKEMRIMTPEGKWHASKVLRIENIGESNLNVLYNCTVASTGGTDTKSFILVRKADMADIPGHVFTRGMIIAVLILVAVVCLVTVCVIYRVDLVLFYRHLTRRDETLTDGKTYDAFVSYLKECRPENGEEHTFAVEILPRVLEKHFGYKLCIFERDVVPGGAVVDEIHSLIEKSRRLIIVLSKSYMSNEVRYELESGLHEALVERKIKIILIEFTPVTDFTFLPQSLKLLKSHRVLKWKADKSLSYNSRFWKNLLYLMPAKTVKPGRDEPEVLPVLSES
T2 sequence (looked up) 2: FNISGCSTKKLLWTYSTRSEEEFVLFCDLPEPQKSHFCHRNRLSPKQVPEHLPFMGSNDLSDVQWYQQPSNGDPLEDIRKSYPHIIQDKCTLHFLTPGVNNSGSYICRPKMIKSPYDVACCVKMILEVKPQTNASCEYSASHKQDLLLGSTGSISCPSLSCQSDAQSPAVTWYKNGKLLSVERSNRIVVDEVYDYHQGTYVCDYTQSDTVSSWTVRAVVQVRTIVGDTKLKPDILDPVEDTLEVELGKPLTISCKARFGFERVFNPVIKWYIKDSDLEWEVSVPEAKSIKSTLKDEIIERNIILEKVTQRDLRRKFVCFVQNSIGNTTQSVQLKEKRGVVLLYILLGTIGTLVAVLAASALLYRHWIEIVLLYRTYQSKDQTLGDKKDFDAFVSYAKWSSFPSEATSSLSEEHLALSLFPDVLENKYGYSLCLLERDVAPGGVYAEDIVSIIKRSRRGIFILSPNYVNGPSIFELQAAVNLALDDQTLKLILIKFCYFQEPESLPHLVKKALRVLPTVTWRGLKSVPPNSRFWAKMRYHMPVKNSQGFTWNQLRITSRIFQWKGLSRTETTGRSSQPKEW


Legend:
[1] = target: T1, IL-18 binding protein (IL-18BP); test: cell-based or functional assay
[2] = target: T2, IL-18 receptors on HEK-Blue IL-18 …; test: cell-based or functional assay

Binder | Activity, +100 nM BP, DF-1000002 [1] | Activity, +100 nM BP, DF-5000003 [1] | Activity, +100 nM BP, DF-25000004 [1] | Ratio (-BP/+BP), DF-1000005 [1] | Ratio (-BP/+BP), DF-5000006 [1] | Ratio (-BP/+BP), DF-25000007 [1] | Activity, No BP, DF-100000 [2] | Activity, No BP, DF-500000 [2] | Activity, No BP, DF-2500000 [2]
IL-18 variant G3P, E6K, K53M, D54W, S55N, T63S, N91I (ligand) YFPKLKSKLSVIRNLNDQVLFIDQGNRPLFEDMTDSDMRDNAPRTIFIISMYMWNQPRGMAVSISVKSEKISTLSSENKIISFKEMNPPDIIKDTKSDIIFFQRSVPGHDNKMQFESSSYEGYFLASEKERDLFKLILKKEDELGDRSIMFTVQNED | 0.65 | 0.2 | 0.09 | 0.98 | 1.07 | 0.91 | 0.64 | 0.21 | 0.08
IL-18 variant G3S, E6Q, K53S, D54Y, S55H, N91L, R104Q (ligand) YFSKLQSKLSVIRNLNDQVLFIDQGNRPLFEDMTDSDMRDNAPRTIFIISMYSYHQPRGMAVTISVKSEKISTLSSENKIISFKEMNPPDLIKDTKSDIIFFQQSVPGHDNKMQFESSSYEGYFLASEKERDLFKLILKKEDELGDRSIMFTVQNED | 0.51 | 0.2 | 0.1 | 0.95 | 0.81 | 0.88 | 0.49 | 0.16 | 0.08
IL-18 variant G3P, E6H, D54A, S55P, Q56K, T63S, N91M (ligand) YFPKLHSKLSVIRNLNDQVLFIDQGNRPLFEDMTDSDMRDNAPRTIFIISMYKAPKPRGMAVSISVKSEKISTLSSENKIISFKEMNPPDMIKDTKSDIIFFQRSVPGHDNKMQFESSSYEGYFLASEKERDLFKLILKKEDELGDRSIMFTVQNED | 1.24 | 0.61 | 0.19 | 0.97 | 1.03 | 0.9 | 1.2 | 0.63 | 0.17
IL-18 variant G3P, E6K, D54R, S55P, T63A, N91V (ligand) YFPKLKSKLSVIRNLNDQVLFIDQGNRPLFEDMTDSDMRDNAPRTIFIISMYKRPQPRGMAVAISVKSEKISTLSSENKIISFKEMNPPDVIKDTKSDIIFFQRSVPGHDNKMQFESSSYEGYFLASEKERDLFKLILKKEDELGDRSIMFTVQNED | 1.34 | 0.73 | 0.28 | 0.98 | 0.92 | 0.79 | 1.31 | 0.67 | 0.22
IL-18 variant G3R, L5W, E6H, D54Y, Q56H, N91R (ligand) YFRKWHSKLSVIRNLNDQVLFIDQGNRPLFEDMTDSDMRDNAPRTIFIISMYKYSHPRGMAVTISVKSEKISTLSSENKIISFKEMNPPDRIKDTKSDIIFFQRSVPGHDNKMQFESSSYEGYFLASEKERDLFKLILKKEDELGDRSIMFTVQNED | 0.32 | 0.11 | 0.08 | 1.25 | 1.09 | 1.01 | 0.39 | 0.12 | 0.08
IL-18 variant G3P, E6G, D54T, S55W, N91E, R104K (ligand) YFPKLGSKLSVIRNLNDQVLFIDQGNRPLFEDMTDSDMRDNAPRTIFIISMYKTWQPRGMAVTISVKSEKISTLSSENKIISFKEMNPPDEIKDTKSDIIFFQKSVPGHDNKMQFESSSYEGYFLASEKERDLFKLILKKEDELGDRSIMFTVQNED | 0.33 | 0.12 | 0.08 | 1.09 | 1.06 | 0.97 | 0.35 | 0.13 | 0.07

— patent publication US20240182536A1 (MURAL ONCOLOGY, published 2024)
